# T1: MBP-A2 (Qβ lysis protein A2 fused to E. coli maltose-binding protein) (bacteriophage Qβ, UniProt Q8LTE2 1-420)
# T1 sequence (looked up): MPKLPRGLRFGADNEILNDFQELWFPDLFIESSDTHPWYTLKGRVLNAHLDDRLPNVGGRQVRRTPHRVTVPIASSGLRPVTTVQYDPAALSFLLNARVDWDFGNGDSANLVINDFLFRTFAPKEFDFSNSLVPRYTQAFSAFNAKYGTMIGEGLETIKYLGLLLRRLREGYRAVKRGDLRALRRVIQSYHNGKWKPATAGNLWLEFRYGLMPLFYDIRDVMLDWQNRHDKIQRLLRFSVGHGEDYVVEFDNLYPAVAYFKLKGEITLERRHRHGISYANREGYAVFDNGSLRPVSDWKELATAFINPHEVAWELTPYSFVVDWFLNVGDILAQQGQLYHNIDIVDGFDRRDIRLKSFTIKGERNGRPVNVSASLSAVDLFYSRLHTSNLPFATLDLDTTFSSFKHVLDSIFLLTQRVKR
# T2: A2 cleaved from the MBP fusion protein with TEV protease (bacteriophage Qβ, UniProt Q8LTE2 1-420)
# T2 sequence (looked up): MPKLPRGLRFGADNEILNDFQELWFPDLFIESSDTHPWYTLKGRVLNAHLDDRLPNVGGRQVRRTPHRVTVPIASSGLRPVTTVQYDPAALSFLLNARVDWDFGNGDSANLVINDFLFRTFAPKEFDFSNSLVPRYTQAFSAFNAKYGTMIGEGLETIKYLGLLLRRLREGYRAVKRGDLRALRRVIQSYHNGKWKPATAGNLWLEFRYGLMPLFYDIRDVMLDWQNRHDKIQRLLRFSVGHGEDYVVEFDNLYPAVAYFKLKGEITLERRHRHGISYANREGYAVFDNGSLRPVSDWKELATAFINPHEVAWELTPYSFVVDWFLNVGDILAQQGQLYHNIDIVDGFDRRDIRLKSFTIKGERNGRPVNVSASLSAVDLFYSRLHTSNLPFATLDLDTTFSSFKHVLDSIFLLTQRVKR
# Tests used:
# [1] = target: T1, MBP-A2 (Qβ lysis protein A2 fused to E. …); assay: pull-down
# [2] = target: T2, A2 cleaved from the MBP fusion protein …; assay: fusion cleavage assay
Binder,binding result [1],binding result [2]
"MurA (E. coli), purified, with C-terminal oligo-histidine tag (enzyme) MDKFRVQGPTKLQGEVTISGAKNAALPILFAALLAEEPVEIQNVPKLKDVDTSMKLLSQLGAKVERNGSVHIDARDVNVFCAPYDLVKTMRASIWALGPLVARFGQGQVSLPGGCTIGARPVDLHISGLEQLGATIKLEEGYVKASVDGRLKGAHIVMDKVSVGATVTIMCAATLAEGTTIIENAAREPEIVDTANFLITLGAKISGQGTDRIVIEGVERLGGGVYRVLPDRIETGTFLVAAAISRGKIICRNAQPDTLDAVLAKLRDAGADIEVGEDWISLDMHGKRPKAVNVRTAPHPAFPTDMQAQFTLLNLVAEGTGFITETVFENRFMHVPELSRMGAHAEIESNTVICHGVEKLSGAQVMATDLRASASLVLAGCIAEGTTVVDRIYHIDRGYERIEDKLRALGANIERVKGE",binds,
"MurA^D305A, purified (enzyme, E. coli) MDKFRVQGPTKLQGEVTISGAKNAALPILFAALLAEEPVEIQNVPKLKDVDTSMKLLSQLGAKVERNGSVHIDARDVNVFCAPYDLVKTMRASIWALGPLVARFGQGQVSLPGGCTIGARPVDLHISGLEQLGATIKLEEGYVKASVDGRLKGAHIVMDKVSVGATVTIMCAATLAEGTTIIENAAREPEIVDTANFLITLGAKISGQGTDRIVIEGVERLGGGVYRVLPDRIETGTFLVAAAISRGKIICRNAQPDTLDAVLAKLRDAGADIEVGEDWISLDMHGKRPKAVNVRTAPHPAFPTAMQAQFTLLNLVAEGTGFITETVFENRFMHVPELSRMGAHAEIESNTVICHGVEKLSGAQVMATDLRASASLVLAGCIAEGTTVVDRIYHIDRGYERIEDKLRALGANIERVKGE",,binds

# From publication PMC4631118 (Molecular microbiology, 2012)
